Reference: US20080286803A1 (NEDERLANDSE ORGANISATIE VOOR TOEGEPAST …, published 2008)

Biological target: wild-type pro-urokinase (natural activation site Pro-Arg-Phe-Lys-Ile-Ile-Gly-Gly) (human, UniProt P00749 21-431)
Assay: cell-based or functional assay

B1: purified recombinant MASP-2 (active form) (enzyme, UniProt O00187 16-686, looked up)
chain: TPLGPKWPEPVFGRLASPGFPGEYANDQERRWTLTAPPGYRLRLYFTHFDLELSHLCEYDFVKLSSGAKVLATLCGQESTDTERAPGKDTFYSLGSSLDITFRSDYSNEKPFTGFEAFYAAEDIDECQVAPGEAPTCDHHCHNHLGGFYCSCRAGYVLHRNKRTCSALCSGQVFTQRSGELSSPEYPRPYPKLSSCTYSISLEEGFSVILDFVESFDVETHPETLCPYDFLKIQTDREEHGPFCGKTLPHRIETKSNTVTITFVTDESGDHTGWKIHYTSTAQPCPYPMAPPNGHVSPVQAKYILKDSFSIFCETGYELLQGHLPLKSFTAVCQKDGSWDRPMPACSIVDCGPPDDLPSGRVEYITGPGVTTYKAVIQYSCEETFYTMKVNDGKYVCEADGFWTSSKGEKSLPVCEPVCGLSARTTGGRIYGGQKAKPGDFPWQVLILGGTTAAGALLYDNWVLTAAHAVYEQKHDASALDIRMGTLKRLSPHYTQAWSEAVFIHEGYTHDAGFDNDIALIKLNNKVVINSNITPICLPRKEAESFMRTDDIGTASGWGLTQRGFLARNLMYVDIPIVDHQKCTAAYEKPPYPRGSVTANMLCAGLESGGKDSCRGDSGGALVFLDSETERWFVGGIVSWGSMNCGEAGQYGVYTKVINYIPWIENIISDF
  absorbance change at 405 nm (activation of pro-urokinase, read with pyro-Glu-Gly-Arg-pNA): ~2 fold
